Results: the nanobody polyreactivity screen of Harvey et al. (2022)

Assay: yeast display, Sf9 membrane polyspecificity reagent, FACS + sequencing; frameworks hold sequencing errors
Method in brief: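 Polyreactivity labels are assigned by the sorting gate from which each nanobody was recovered. The gates were low and high (top ~1%), set on anti-HA fluorescence for expression and streptavidin fluorescence for reagent binding. Before sorting, galactose-induced (36–48 hours) yeast display cells were stained for 1 hour at 4 °C with 10% biotinylated, detergent-solubilized Sf9 membrane reagent.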

Sequence	polyreactivity (PSR sort gate)
QVQLVESGGGLVQAGGSLRLSCAASGFTFTSYAMGWYRQAPGKERELVAAITWDGGRTYYADSVKGRFTISRDNSKNTVYLQMNSLKPEDTAVYYCAKVYNPRQYDYWGQGTQVTVSS	low polyreactivity
QVQLVESGGGLVQAGGSLRLSCAASGNIFTYYVMGWYRQAPGKERELVAAISRRGGSTYYADSVKGRFTISRDNAKNTVYLQMNSLKPEDTAVYYCAKKYPRDMDYWGQGTQVTVSS	high polyreactivity
QVQLVESGGGLVQAGGSLRLSCAASGRTFRRNAMGWYRQAPGKERELVAAISGGGSTNYADSVKGRFTISRDNAKNTVYLQMNSLKPEDTAVYYCNKRGTIWSGYWGQGTQVTVSS	high polyreactivity
QVQLVESGGGLVQAGGSLRLSSAASGLIFFTYAMGWYRQAPGKERELVATISRGGRTKYADSVKGRFTISRDNAKNSVYLQMNSLKPEDTAVYYCAAYLSRSYYAYDYWGQGTQVTVSS	high polyreactivity
QVQLVESGGGLVQAGGSLRLSCAASGSTGVNTMGWYRQAPGKERQLVAAIRATGGSTYYADSVKGRFTISRENAKNTVYFQMNSLKPEDTAVYYCNAYRRSYRWYGDLGEYWGQGTQVTVSS	high polyreactivity
QVQLVESGGGLVQAGGSLRLSCAASGRIFFYNAMGWYRQAPGKERELVATINWSGGSTYYADSVKGRFTISRDYAKNTVYLQMNSLKPEDTAVYYCNALRASTTALWGGYWGQGTQVTVSS	high polyreactivity
QVQLVESGGVLVQAGGSLRLSCAASGRTLRSYAMGWYRHAPGKERELVAAISRSGGSTYYADSVKGRFTISRDNAKNTVYLQMNSLKPEDTAVYYCATRYLGRLDYWGQGTQVTVSS	high polyreactivity
QVQLVESGGVLVQAGGRLRLSCAASGLTFYLYAMGWYRQAPGKQREFVAAISRSGTSTYYADSVKGRFTISRDYAKNTVNLQKNSLKPDDTAVYYCAALNYHKFAHKYDYWGQGTPVTVSS	low polyreactivity
QVQLVESGGGLVQAGGSLRLSCAASGLTFVYNNMGWYRQAPGKERELVAAINWSGGRTYYADSVKGRFTISRDNAKNTVYLQMNSLKPEDTAVYYCAALYVPNTPTYKYDYWGQGTQVTVSS	low polyreactivity
QVQLVESGGGLVQAGGSLRLSCAASGSTFAGYAMGWYRQAPGKERELVAAISWNGGSTYYADSVKGRFTISRDNAKNTVYLQMNSLKPEDTAVYYCAKARYYSWKGKGDYWGQGTQVTVSS	high polyreactivity
QVQLVESGGGLVQAGGSLRLSCAASGRTFVYYAMGWYRQAPGKEREFVATISDGGGTYYADSVKGRFTISRDNAKNTVYLQMNSMNPEDSAVYYCNARGTPWRYGGDYWGQGTQVTVSS	low polyreactivity
QVQLVESGGGLVQAGGSLRLSCAASGSTFRYNAMGWYRQAPGKERELVAAISKSGGSTYYADSVKGRFTISRDNAKNTVYLQMNSLKPEDTAVYYCATSYPYRIYRSSYDYWGQGTQVTVSS	high polyreactivity
QVLLVESGGGLVQAGGSLSLSCAASGLIFVNAMGWYRQAPGKEREFVAAITYSTGSTYYADSVKGRFTISRDNAKNTVYLQMNSLKPEDTAFYYCAKDRSGHGTERDDWGQGTQVTVSS	low polyreactivity
QVQLVESGGGLVQAGGSLRLSCAASGFTFASNAMGWYRQAPGKERELVAAITWGTGTTSYADSVKGRFTISRDYAKNTVYLQMNSLKPEDTAVYYCNARVGPELHDYWGQGTQVTVSS	low polyreactivity
QVQLVESGGGLVQAGGSLRLSCAASGFIFGTNAMGWYRQAPGKERELVASISSTGGSTYYADSVKGRFTISRDNAKNTVYLQMNSLKPEDTAVYYFSADPYPEYIRYLPGVDYWGQGTQVTVSS	low polyreactivity
QVQLVESGGGLVQAGGSLRLSCAAYGSIFTRNAMGWYRQAPGKERELVATITSNDGSTNYADSVKGRFTISRDNAKNTVYLQMISLKPEDTAVYYCNRSYGVYSEFDYWGQGTQVTVSS	low polyreactivity
PVQLQESGGGLMQAGGNLRLSCAASGYISTHYDMDWYRQAPGKERELVARIDDGAITNYADSVKGRFTISRDNAKNTVYLQMNSLKPEDTAVYYCAVYSGDDYYHDYWGQGTQVTVSS	low polyreactivity
QVQLVESGGGLVQAGGSLSLSCAASGSIFGFNAMGWYRQAPGKERELVAAINNGGSTNYADSVKGRFTISRDNAKNTVYLQMNSLNPEDTSVYYCAAVGGWRWSNQDYRYPYYYWGQGTQVTVSS	high polyreactivity
QVQLLESGGGLVQAGGSLRLSCAASGRTFTRNAMGWYRQAPGKERELVAAISYRVGSTYYADSVKGRFTISRDNAKNTVYLQMNSLKPEDTAVYYCATGRGHSYGGDDYWGQGTQVTVSS	high polyreactivity
QVQLVESGGGLVQAGGSLRLSCAASGRIFYGYAMGWYRQAPGKERELVAAITYSGGITYYADSVKGRFTISRDNAKNTVYLQMNSLKPEDTAVYYCATSKSSVTGPDLDYWGQGTQVTVSS	high polyreactivity
QVQLVESGGGLVQAGGSLRLICAASGFTFRSYAMGWYRQAPGKERELVAAITSTGGRTYYADSVKGRFTISRDNAKNTVYLQMNSLKPEDTAVYYCAAGRKHYAPVHFGYWGQGTQVTVSS	high polyreactivity
QVQIVESGGGLVQAGGSLRLSCAASGTFARYAMGWYRQAPRKERELVAAITRRGGNTYYADSVKGRFSISRDNAKNTVYLPMNSQKPEDTAVYYCAILGEDTNGYWGQGTQVTVSS	high polyreactivity

Sequence	polyreactivity (PSR sort gate)
QVQLVESGGGLVQAGGSLRLSCAASGSIFRINVMGWYRQAPGKERELVAAISYSGGRTYYADSVKGRFTISRDNAKKTVYLQMNSLKPEDTAVYYCAATRSNFIYDYWGQGTQVTVSS	high polyreactivity
QVQLVESGGGLVKAGGSLRLSCAASGIIMSYYVMGWYIQAPGKERELVAAISLRGGTTYYADSEKGRFTISRDNAKNTVYLQKNSLKPEDTAVYYCAAQRPGFGYEYDYWGQGTQVTVSS	high polyreactivity
QVQLVESGGGLVQAGGSLRLSCAASGRTFGYNAMGWYRQAPGKERQFVAAISWSGGRTYYADSVKGRFTISRDNAKNTVYLQMNSLKPEDTAVYYCAAAAPHLSAKMDYWGQGTQVTVSS	low polyreactivity
QDQLVESGGGLVQAGGSLRLSCAASGRIFCSYAMGWYRQAPGKERELVAAISRRGGGTYYADSVKGRFTISRENAKNTVYLQMNSLKPEDTAFYYCAKDWYGRYYYWGQGTQVTVSS	high polyreactivity
QVQRVESGGGLVQEGGSLRLSCAASGLIFAIYAMGWYRQAPGKDRELVAAMRWSGASTYADSVKGRFTNSRDNAYNTVYLQMISLKREDTAVYYCAADDLLDYDYWGQGTQVTVSS	low polyreactivity
QVQLVESGGGLVQAGGSLRLSCAASGFTFNYNTMGWYRQAPGKERQLVAAISRSGGSTYYADSVKGRITISRDNAKNTVYLQMNSLKPEDTAVFYCAKDTYYPSSRYNRYYYWGQGTQVTVSS	high polyreactivity
QDQLVESGGGLVQAGGSLRLSCAASGRIFGFNAMGWYRQAPGKERELVAAISWRGGSTRYADSVKGRFTISRDNAKNTVYLQMNSLKPEDTAVYYCATPYADPGTVQYAGYNYWGQGTQVTVSS	high polyreactivity
HVQLVESGGGLVQAGGSLRLSCAASGRTFPRYAMGWYRQAPGTERELVAAISVRAGITYYADSVKGRFTISRDNAKNTVYLQMNSLKPEDTAVYYCAKDLWTTSYDEGDYWGQGTQVTVSS	low polyreactivity
QVQLVESGGGLVHAGGSLRLSCAPSGSTFFTNAMGWYRQAPGKERELVAAITINDGSTFYADSVKGRFTISRDNAKNTVYLQMNSLKQEDTAVYYCNADGVDLYDYWGQGTQVTVSS	low polyreactivity
QVQLVESGGGLVQAGGSLRLSCAASGRTFGSNTMGWYRQAPGKERELVAAISGTGTSTYYADSVKGRFTISRDNAKNTVYLQMNSLKPEDTAVYYCAAGWYKYLFQPHDYWGQGTQVTVSS	low polyreactivity
QVQLVESGAGLVQAGGSLRLSCAASGSTFWWNTMGWYRQAPGKERELVAAITTGGGTYYADSVKGRFTISRDNAKNTVYLQMNSLKPEDTAVYYCAATVRSYGWYAYHYSTYGYWGQGTQVTVSS	low polyreactivity
QVQLVESGGGLVQAGGSLRLSCADSGSTFYHNAMGWYRQAPGKERELDDAIRFSGTSTYYADSVKGRFTISRDNAKNTVYLQMNSLKPEDTAVYYCAAEVSSPAQREFDYWGQGTQVTVSS	low polyreactivity
QVQLVESGGGLVQAGGSLRLSCAASGITIGRYAMGWYRPAPGKERELVAAISSTGGRTYYADSVKGRFTISRDNAKNTVYLQMNSLKPEDTAVYYCAAGRRRPFGRNDYWGQGTQVTVSS	high polyreactivity
QVQLVESGGGLVQAGGSLRLSCAASGSTFTSYTMGWYRQAPGKERELVARITRGGGSTYYADSVKGRFTISRDNAKNTVYLQMNSLKPEDTRSSPVLSYDYWGQGTQVTVSS	low polyreactivity
QEQLQERGGGLVQAGGSQRLGCAASGNISDAGYMGLYRQAPGKERELVAAIAAGSNTNYADSVKGRFTISRDNAKNTVYLQMNSLKPEDTAVFYCAVASYALVQYEYWGQGTQVTVNS	low polyreactivity
QVQLVESGGGLVQAGGSLRLSCAASVRIFGYYAMGWNRQAPGTERELVATINSVGSTNYADSVKGRFTISRDNAKNTVYLQMNSLKPEDTAVYYCATDSAYTFFTYRLWRHGYWGQGTQVTVSS	low polyreactivity
QVQLVESGGGLVQAGGSLRLSCAASGFNLKWYAMGWYRQAPGKERELVAAINDRGGNTYYADSVKGRFTISRDNAKNTVYLQMNSLKPEDTAVYYCAVRGKTYRPYYYWGQGTQVTVSS	high polyreactivity
QVQLVESGGGLVEAGGSLRLSCAASGRTFRYYAMGWYRQAPGKVREFVAAISTSGGRTYYADSVKGRFTISRDNAKNTVYLQMNSLKPEDTAVYYCAAVSAPRFGMDYLGQGTQVTVSS	high polyreactivity
QVQLVESGGGLVQAGGSLRLSCAASGSTFSENAMGWYRQAPGKERELVADITNGGSTNYADSVKGRFTISRDNAKNTVYLQMNSLKPEDTAVYYCATDSYPGLNPDFDYWGQGTQVTVSS	low polyreactivity
QVQLVESGGGLVQAGGSLRLSCAASGFTFYLYTMGWYRQAPGKERELVATITSDGGTNYADSVKGRFTISRDNAKNTVYLQMNSLTPEDTAVYYCARDYLSPYAVDYWGQGTQVTVSS	low polyreactivity
QVQLVESGGGLVQAGGSLRLSFAASGITFSSYAMGLYRQAPGKERELVARISTDADTYYADSVKGRFTISRDNAKNTVYLQMNSLKPEDTAVYYCAAEDYWDFDYWGQGTQVTVSS	low polyreactivity
